Measurements from patent publication US20090041783A1 (MOCHIDA PHARMACEUTICAL, published 2009).

Key:
[1] = target: T1, human GPVI extracellular region-human Fc fusion protein (hGPVI-hFc) (human); assay: blocking ELISA: binding of hGPVI-hFc to immobilised collagen in the presence of the antibody (panel Comparsion of mouse anti-GPVI monoclonal antibodies)
T1 construct: Expressed in COS-1, purified on Protein A; also called GPVI-HHH-hFc; hGPVIHHH-hFc

[2] = target: T1, human GPVI extracellular region-human …; assay: competition ELISA on immobilised hGPVI-hFc: unlabelled antibody against the peroxidase-labelled mouse antibody of the panel titled F1232-10-2 competition assay (the text, paragraph 248, names F1232-10-1); x axis relative amount to labeled Ab (fold)
Protocol: Next, by using the peroxidase-labeled antibody, the competitive test for a variety of purified antibody was performed. That is, 25 μL of the above labeled antibody and 25 μL of each purified antibody were added to well of hGP-hFc-immobilized plate. After incubation at 37° C. for one hour, the well was washed five times with the saline containing 0.05% Tween20, and the reaction mixture was developed with TMB solution (BioFix). After incubation at room temperature for 10 minutes, the reaction was terminated with 0.5 M sulfuric acid solution and an absorbance at 450 nm was measured with the plate spectrophotometer (Multi-Scan JX, Dainippon Pharmaceutical).
To compare an antigen binding property of mouse/human chimeric antibody with that of the corresponding mouse monoclonal antibody, in the same method as that of EXAMPLE 14, peroxidase-labeled F1232-37-2, F1232-18-3, F1232-43-3 and F1232-10-1 were prepared. […] Further, an inhibiting activity of each antibody for binding of GPVI to collagen was measured according to the method described in EXAMPLE 2 or EXAMPLE 14. […]

hGPVI-mL3-hFc = target: T2, hGPVI-mL3-hFc (human (loop 3 from mouse)); assay: competition ELISA on hGPVI-hFc plate; soluble hGPVI-mL3-hFc as competitor
T2 construct: also called hGPVI-hFc-mL3
T2 sequence (chain, as listed by the source limits assumed): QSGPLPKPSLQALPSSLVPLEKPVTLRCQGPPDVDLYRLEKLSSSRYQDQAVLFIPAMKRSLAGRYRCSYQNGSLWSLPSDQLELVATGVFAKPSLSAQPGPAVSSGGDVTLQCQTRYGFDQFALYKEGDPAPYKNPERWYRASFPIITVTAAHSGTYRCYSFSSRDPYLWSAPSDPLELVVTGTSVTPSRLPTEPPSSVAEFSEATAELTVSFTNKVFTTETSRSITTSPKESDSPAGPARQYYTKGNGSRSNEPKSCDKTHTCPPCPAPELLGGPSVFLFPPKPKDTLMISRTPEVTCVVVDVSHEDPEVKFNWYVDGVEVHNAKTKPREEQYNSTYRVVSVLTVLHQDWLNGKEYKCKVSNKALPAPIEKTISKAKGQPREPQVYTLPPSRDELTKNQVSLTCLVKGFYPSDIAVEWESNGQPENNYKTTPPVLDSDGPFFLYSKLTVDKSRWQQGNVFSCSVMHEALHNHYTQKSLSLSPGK
Protocol: (§1) To the plate, wherein hGPVI-hFc has been immobilized at 4 μg/mL, a mixture of peroxidase-labeled F1232-37-2 or cF1232-37-2 by the method described in EXAMPLE 14, and hGPVI-hFc, mGPVI-hFc, hGPVI-mL3-hFc, wherein these were prepared in EXAMPLE 7, or hGPVI-K59E-hFc (a fusion protein consisting of one amino acid mutated human GPVI extracellular region, wherein lysine at 59 of human GPVI is substituted for glutamic acid, and human Fc), which has been prepared by the same method as that of EXAMPLE 1 and diluted with 0.1% BSA/PBS was added, and the plate was incubated at 37° C. for one hour. After incubation, the mixture was developed using TMB solution, and absorbance at 450 nm was measured.

hGPVI-K59E-hFc = target: T3, hGPVI-K59E-hFc (human); assay: competition ELISA on hGPVI-hFc plate; soluble hGPVI-K59E-hFc as competitor
T3 construct: Fusion of human GPVI extracellular region with lysine at 59 of human GPVI substituted for glutamic acid, and human Fc
T3 sequence (chain, as listed by the source K59E K59E limits assumed): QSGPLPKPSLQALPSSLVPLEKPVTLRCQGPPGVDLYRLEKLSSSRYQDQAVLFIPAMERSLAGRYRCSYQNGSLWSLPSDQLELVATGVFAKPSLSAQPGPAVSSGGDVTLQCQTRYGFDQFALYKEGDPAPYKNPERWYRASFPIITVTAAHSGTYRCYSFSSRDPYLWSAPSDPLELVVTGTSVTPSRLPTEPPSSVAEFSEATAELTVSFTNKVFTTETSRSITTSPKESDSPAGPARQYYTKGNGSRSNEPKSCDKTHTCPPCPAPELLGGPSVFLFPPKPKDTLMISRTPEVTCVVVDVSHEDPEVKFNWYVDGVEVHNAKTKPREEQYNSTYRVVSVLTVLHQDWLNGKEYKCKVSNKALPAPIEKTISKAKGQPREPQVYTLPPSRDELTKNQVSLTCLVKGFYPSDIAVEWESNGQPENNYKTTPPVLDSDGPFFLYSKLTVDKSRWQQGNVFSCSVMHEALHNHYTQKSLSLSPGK
Protocol: as §1

[3] = target: T1, human GPVI extracellular region-human …; assay: competition ELISA on immobilised hGPVI-hFc: unlabelled antibody against labelled cF1232-37-2/COS
Protocol: as §1
To confirm the reactivity of cF1232-37-2/CHO, using binding ability to hGPVI-hFc as an index, the competitive test with cF1232-37-2 prepared by transient gene expression system with COS cells was performed. The measurement method was in accordance with the method described in 17-3 of EXAMPLE 17. Using hGPVI-hFc as an immobilized protein, a competitive activity to labeled cF1232-37-2/COS was confirmed when unlabeled cF1232-37-2/CHO or cF1232-37-2/COS was added at a variety of concentration. It was confirmed that the reactivity of cF1232-37-2/CHO is equivalent to that of cF1232-37-2/COS.

[4] = target: T1, human GPVI extracellular region-human …; assay: SPR (BIACORE 3000), hGPVI-hFc on CM5 chip, 0-800 nM analyte, bivalent analyte fit
Protocol: (§2) Dissociation constant for F1232-37-2 (whole antibody) prepared in EXAMPLE 2, and F(ab′)2 and Fab prepared in 22-1 and 21-2 was measured with Protein Interaction Analyzer BIACORE 3000 (BIACORE). That is, to sensorchip CM5 (BIACORE) hGPVI-hFc prepared in EXAMPLE 1 was bound according to the manual. Then a series of dilution from 0 to 800 nM of each antibody was prepared with HBS-EP buffer (BIACORE) and analyzed with BIACORE 3000. After completion of antibody binding, chip was regenerated with glycine buffer (pH 1.5) (BIACORE). Regarding the results of whole antibody and F(ab′)₂, evaluation software Bivalent analyte (BIACORE) was used for analysis; 1:1 Binding for Fab analysis. Then the dissociation constant was calculated. As a result, dissociation constant of F1232-37-2 F(ab′)2 and Fab was about 0.7 and 0.6, respectively, when that of whole antibody defined as one.

[5] = target: T1, human GPVI extracellular region-human …; assay: SPR (BIACORE 3000), hGPVI-hFc on CM5 chip, 0-800 nM analyte, 1:1 binding fit
Protocol: as §2

[6] = target: T1, human GPVI extracellular region-human …; assay: ELISA on immobilised hGPVI-hFc (GPVI antigen binding assay of Example 31)
[7] = target: T1, human GPVI extracellular region-human …; assay: SPR (BIACORE3000), GPVI-Fc on CM5 chip, antibody 1.25-40 nM as analyte, bivalent analyte fit
Protocol: (§3) Dissociation constant for the anti-GPVI monoclonal antibody prepared in EXAMPLE 2 was measured using protein interaction analyzer BIACORE3000 (BIACORE). That is, to sensor chip, CM5 chip (BIACORE), GPVI substitution mutant (hGPVIHHH-hFc and FFH-hFc) that is prepared in EXAMPLE 1 was linked according to the manual. Then each antibody was diluted with HBS-EP buffer solution (BIACORE) to prepare a series of diluted solution from 1.25 to 40 nM, and analyzed with BIACORE3000. Every each antibody bound chip, the chip was regenerated with glycine buffer solution at pH1.5. The obtained result was analyzed with Bivalent analyte, the evaluation software (BIACORE) to calculate dissociation constant. It was shown that each anti-GPVI monoclonal antibody has a sufficient affinity to GPVI-HHH-hFc.

[8] = target: T4, cynomolgus monkey D1D2-human D3 chimeric GPVI-human Fc fusion protein (GPVI-FFH-hFc) (cynomolgus monkey (D1, D2) and human …); assay: as above
T4 construct: also called Monkey GPVI
T4 sequence (chain, as listed by the source mutant limits assumed): as the sequence (chain, as listed by the source K59E K59E limits assumed) above, with S2R, E59K, S61H, L78P, R166G, V181M, P442S counted along it
Protocol: as §3

[9] = target: T1, human GPVI extracellular region-human …; assay: ELISA on immobilised hGPVI-hFc, peroxidase-labelled anti-mouse immunoglobulin antibody
Protocol: Binding activity to the antigen was detected by ELISA. To each well of immunoplate immobilized with hGPVI-hFc (prepared by the method described in EXAMPLE 2 and the like), F1232-37-2 antibody and F1232-37-2 PEGylated antibody, wherein both antibodies had been adjusted to the same concentration, was added and the plate was incubated at 37° C. for one hour. The well was washed with saline containing 0.05% Tween20. Then 50 μL of peroxidase-labeled anti-mouse immunoglobulin antibody (DAKO, P260), which had been diluted by 1000-fold with 10% rabbit serum-containing D-PBS, was added to each well. After incubation at 37° C. for one hour, coloring reaction by the TMB substrate was done to measure an absorbance at 450 nm with plate spectro-photometer (Molecular Devices, Wako). As a result, it was confirmed that both F1232-37-2 antibody and PEGylated F1232-37-2 antibody have almost equivalent binding activity.

T1 sequence (chain, as listed by the source limits assumed): as the sequence (chain, as listed by the source K59E K59E limits assumed) above, with E59K counted along it

B1: F1232-10-1 (antibody, V domains shown)
VH: VTLKESGPGILQPSQTLSLTCSFSGFSLSTYGIGVGWIRQPSGKGLEWLAHIWWNDDKYYNTALKSRLTISKDTSNNQVFLKIASVDTADTATYYCARVYYYGSSFDYWGQGTTLTVSS
VL: DIQMTQSPASLSASVGETVTITCRASENIFSILAWYQQKQGKSPQLLVYAATNLADGVPSRFSGSGSGTQFSLKINSLQPEDFGSYYCQHFYGTPWTFGGGTKLEIKR
notes: Mouse hybridoma monoclonal antibody
binding result [1]: binds

B2: cF1232-10-1 (antibody, human IgG4, V domains shown)
VH: VTLKESGPGILQPSQTLSLTCSFSGFSLSTYGIGVGWIRQPSGKGLEWLAHIWWNDDKYYNTALKSRLTISKDTSNNQVFLKIASVDTADTATYYCARVYYYGSSFDYWGQGTTLTVSS
VL: DIQMTQSPASLSASVGETVTITCRASENIFSILAWYQQKQGKSPQLLVYAATNLADGVPSRFSGSGSGTQFSLKINSLQPEDFGSYYCQHFYGTPWTFGGGTKLEIKR
notes: Mouse/human chimeric antibody of F1232-10-1; human IgG4 and kappa constant regions; COS-1
binding result [2]: binds

B3: cF1232-37-2 (mouse/human chimeric antibody of F1232-37-2) (antibody, human IgG4, V domains shown)
VH: VQLQQSGPELVRPGESVKISCKGSGYTFTDYAIHWVKLSHAKSLEWIGVISIYYDDTNYNQKFKGKATMTVDKSSSTAYLELARLTSEDSAIYYCARRRDSSGPYAMDYWGQGTSVTVSS
VL: DIVLTQSPASLAVSLGQRATISCRASESVDSYGNSFMHWYQQKPGQPPKLLIYRASNLESGIPARFSGSGSRTDFTLTINPVEADDVATYYCQQSNEDPYTFGGGTKLEIKR
notes: Mouse V regions of F1232-37-2 with human IgG4 (Cgamma4) and human kappa constant regions; plasmids pTK-2510 and pTK-2511; made in COS-1 (/COS) and in CHO DXB11 (/CHO); also called cF1232-37-2/COS; cF1232-37-2/CHO
binding result (hGPVI-mL3-hFc): binds | binding result (hGPVI-K59E-hFc): binds | IC50 (read off the curve) [3]: ~1 µg/mL

B4: F1232-37-2 F(ab')2 (other)
VH: VQLQQSGPELVRPGESVKISCKGSGYTFTDYAIHWVKLSHAKSLEWIGVISIYYDDTNYNQKFKGKATMTVDKSSSTAYLELARLTSEDSAIYYCARRRDSSGPYAMDYWGQGTSVTVSS
VL: DIVLTQSPASLAVSLGQRATISCRASESVDSYGNSFMHWYQQKPGQPPKLLIYRASNLESGIPARFSGSGSRTDFTLTINPVEADDVATYYCQQSNEDPYTFGGGTKLEIKRADAA
notes: F(ab')2 fragment made from mouse F1232-37-2 with Lysyl Endopeptidase; also called mouse monoclonal antibody F1232-37-2 F(ab')2
dissociation constant relative to that of the whole antibody (defined as one) [4]: ~0.7 fold of whole F1232-37-2

B5: F1232-37-2 Fab (Fab, V domains shown)
VH: VQLQQSGPELVRPGESVKISCKGSGYTFTDYAIHWVKLSHAKSLEWIGVISIYYDDTNYNQKFKGKATMTVDKSSSTAYLELARLTSEDSAIYYCARRRDSSGPYAMDYWGQGTSVTVSS
VL: DIVLTQSPASLAVSLGQRATISCRASESVDSYGNSFMHWYQQKPGQPPKLLIYRASNLESGIPARFSGSGSRTDFTLTINPVEADDVATYYCQQSNEDPYTFGGGTKLEIKR
notes: Fab made from mouse F1232-37-2 with papain; also called F1232-37-2 Fab antibody
dissociation constant relative to that of the whole antibody (defined as one) [5]: ~0.6 fold of whole F1232-37-2 | EC50 (read off the curve) [6]: ~0.3 µg/mL

B6: F1232-37-2 (antibody, V domains shown)
VH: VQLQQSGPELVRPGESVKISCKGSGYTFTDYAIHWVKLSHAKSLEWIGVISIYYDDTNYNQKFKGKATMTVDKSSSTAYLELARLTSEDSAIYYCARRRDSSGPYAMDYWGQGTSVTVSS
VL: DIVLTQSPASLAVSLGQRATISCRASESVDSYGNSFMHWYQQKPGQPPKLLIYRASNLESGIPARFSGSGSRTDFTLTINPVEADDVATYYCQQSNEDPYTFGGGTKLEIKR
notes: Mouse hybridoma monoclonal antibody; also called F1232-37-2 antibody; F1232-37-2 whole antibody
binding result (hGPVI-mL3-hFc): binds | binding result (hGPVI-K59E-hFc): binds | Kd [7]: 403 pM | Kd [8]: 1000 pM | EC50 (read off the curve) [9]: ~0.02 µg/mL
